Results on three molecules are retold here after publication PMC3884069 (Cellular and molecular life sciences : CMLS, 2012).

Series [1] concerns the target HLA-G6 (soluble HLA-G isoform, α1–α3 domains) (human) (UniProt P17693). Description: non-reducing SDS-PAGE and western blot. In general terms: A western blot detects proteins with antibodies after separation by electrophoresis.
Series [2] deals with the molecule itself. In words: non-reducing SDS-PAGE and western blot.

Consider “HLA-G6 (soluble HLA-G isoform, α1–α3 domains) (from UniProt P17693-6 25-227) (natural protein)”, for which, in series [1], the stoichiometry N came to 2.

B1: HLA-G2 (membrane-bound HLA-G isoform, α1–α3 domains) (natural protein, human, UniProt P17693-2 25-246, looked up)
MHC heavy: GSHSMRYFSAAVSRPGRGEPRFIAMGYVDDTQFVRFDSDSACPRMEPRAPWVEQEGPEYWEEETRNTKAHAQTDRMNLQTLRGYYNQSEANPPKTHVTHHPVFDYEATLRCWALGFYPAEIILTWQRDGEDQTQDVELVETRPAGDGTFQKWAAVVVPSGEEQRYTCHVQHEGLPEPLMLRWKQSSLPTIPIMGIVAGLVVLAAVVTGAAVAAVLWRKKSSD
Consider B1, for which the “stoichiometry N” value in series [2] was 2.

B2: HLA-G4 (membrane-bound HLA-G isoform, α1–α2 domains) (natural protein, human, UniProt P17693-4 25-246, looked up)
MHC heavy: GSHSMRYFSAAVSRPGRGEPRFIAMGYVDDTQFVRFDSDSACPRMEPRAPWVEQEGPEYWEEETRNTKAHAQTDRMNLQTLRGYYNQSEASSHTLQWMIGCDLGSDGRLLRGYEQYAYDGKDYLALNEDLRSWTAADTAAQISKRKCEAANVAEQRRAYLEGTCVEWLHRYLENGKEMLQRAKQSSLPTIPIMGIVAGLVVLAAVVTGAAVAAVLWRKKSSD
For B2, in series [2], the “stoichiometry N” value was 2.

One may read the stoichiometry N as the number of molecules, sites or subunits per partner or assembly.
